Assay results as given in the supplement of paper PMC10126150.
± gives the standard deviation of the averaged measurements.

The sequences below were run on ATP (assay: switch fluorescence ratio, 500 uM ATP over buffer (Cy3 cluster intensity, sum of 5 cycles each) (fold (ratio)); higher = stronger signal-on switching upon ATP binding; sequences stand for … in TCGTCGGCAGCGTCAGATGTGTATAAGAGACAGTTTTTTTTTTTTTTTTTTTTTTTTT…TC). Settings: aptamer strand: ATP DNA aptamer (quencher-CACCTGGGGGAGTATTGCGGAGGAAGG + anchor), 100 nM annealed; ATP concentration: 500 uM.
Procedure, shortened: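 Switching-strand clusters labelled with Cy3 on a modified Illumina MiSeq flow-cell were annealed to 100 nM quencher-labelled ATP aptamer, imaged in selection buffer, and re-imaged after 15 min with 500 uM ATP at 22 °C. This was done over five cycles with NaOH stripping and re-annealing in between. The fluorescence ratio is summed target-cycle over summed buffer-cycle Cy3 intensity per cluster, averaged per switch-domain sequence, excluding clusters outside 100-1000 RFU.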
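Note: ATP exposure 15 min at 22 °C before imaging.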

| Sequence | switch fluorescence ratio |
| --- | --- |
| AGCTTTGGGA | 0.995 ± 0.085 |
| GCCATCGGGG | 1.03 ± 0.012 |
| GCGAAGTGCG | 0.979 ± 0.015 |
| TTACGCCGAC | 1.14 ± 0.15 |
| ATAGTAACAC | 1.06 ± 0.038 |
| TTTAACGTTG | 0.989 ± 0.04 |
| TTAATGGGAC | 1.012 ± 0.0033 |
| TTTTATGAGA | 0.978 ± 0.031 |
| TCTAAAATTT | 1.15 ± 0.18 |
| GTGCGCAGAT | 0.982 ± 0.022 |
| TATAAATTGC | 1.01 ± 0.016 |
| TCGATAGACG | 1.02 ± 0.018 |
| GCGTTGTGGC | 1.01 ± 0.05 |
| GGGTTTTATT | 0.981 ± 0.036 |
| TGGATGCATT | 1.03 ± 0.015 |
| TTTTACCGAG | 1.047 ± 0.0032 |
| CATTGAGTCG | 0.98 ± 0.052 |
| TCCAAACTGT | 1.01 ± 0.051 |
| ATCGATTGT | 0.973 ± 0.028 |
| TTTTCTCGCT | 0.967 ± 0.02 |
| GTAATAAGCG | 1.007 ± 0.00016 |
| CAAGTTTACC | 1.037 ± 0.0023 |
| TGGGGTTCGT | 0.998 ± 0.066 |
| ATCAACGTTA | 1.07 ± 0.031 |
| TCATAAGTGC | 0.977 ± 0.011 |

| Sequence | switch fluorescence ratio |
| --- | --- |
| ACGAGTCTGG | 1.08 ± 0.039 |
| CGTGCCGGGG | 0.968 ± 0.053 |
| TATAGGAGGG | 0.991 ± 0.039 |
| TTCGTCCTGG | 1.01 ± 0.056 |
| GGTGATAAAT | 0.991 ± 0.025 |
| AAATGTTCCG | 1.03 ± 0.011 |
| TAATGAATAG | 1.01 ± 0.042 |
| TCAGGATTTC | 1 ± 0.036 |
| TAGCGTAGAA | 0.993 ± 0.046 |
| AGCTATAGTA | 0.991 ± 0.01 |
| TAGGTTGTCT | 1.03 ± 0.036 |
| GAGGGAGAAA | 1.03 ± 0.038 |
| AGCCACATGG | 0.98 ± 0.031 |
| ATTCGTTTTG | 1.03 ± 0.017 |
| GAAGCAGATG | 1.16 ± 0.033 |
| CGCTGTGCGG | 0.99 ± 0.052 |
| CATTTAGGGG | 0.995 ± 0.036 |
| GCGCTTACTA | 1.31 ± 0.079 |
| GCGTGAAGAA | 1.03 ± 0.029 |
| GGCCAAGGGG | 1.04 ± 0.027 |
| TGGTTGAGGC | 1.01 ± 0.021 |
| ATTCATTTAG | 0.996 ± 0.013 |
| TTTGTCAGGG | 0.992 ± 0.062 |
| AGCCTACGGG | 1.0466 ± 0.00084 |
| ATAGAATTAA | 0.989 ± 0.013 |

| Sequence | switch fluorescence ratio |
| --- | --- |
| TCTGTAGGTG | 1.07 ± 0.046 |
| GTTGTATGTG | 0.965 ± 0.047 |
| GTGTCGC | 0.991 ± 0.047 |
| AACGATATTC | 1.07 ± 0.03 |
| GATGATGGGT | 1 ± 0.023 |
| AAGATGGTAG | 0.971 ± 0.038 |
| TTGGGAAAAA | 1.14 ± 0.23 |
| TTCGGGCTGT | 0.996 ± 0.011 |
| AACATGGGGG | 1.01 ± 0.023 |
| TTGCGTATGG | 1.01 ± 0.021 |
| GGGGTAGTGG | 0.981 ± 0.05 |
| TTTCGCAGAA | 1.1 ± 0.1 |
| CCGCGGGTCG | 1.046 ± 0.0013 |
| GGGAGATATG | 0.9788 ± 0.0095 |
| GTGGGTTCCT | 1.013 ± 0.0021 |
| TCGGGGGAAG | 1.01 ± 0.038 |
| GAGGGATATA | 0.996 ± 0.043 |
| TTTATCTTCC | 2.41 ± 0.065 |
| TATCTCTGGG | 1.02 ± 0.014 |
| ACGGCAGTGA | 1.0394 ± 0.00012 |
| CTAGGGGGCG | 0.992 ± 0.058 |
| CTTTTGTCAC | 1.05 ± 0.042 |
| TAGATCGAAC | 1.02 ± 0.024 |
| TTACATGCTA | 1 ± 0.032 |
| TATGTTGTCC | 0.977 ± 0.018 |

| Sequence | switch fluorescence ratio |
| --- | --- |
| GAGTAGATGT | 0.983 ± 0.011 |
| TAGAGGAG | 1.01 ± 0.05 |
| TGATGTCGGG | 0.999 ± 0.034 |
| CAGGGCAATG | 1.2 ± 0.045 |
| TACTACGTAA | 2.27 ± 0.4 |
| TTAGGCGGGC | 1.02 ± 0.027 |
| TTCCGTTCAG | 1.03 ± 0.0075 |
| AACAGGGACC | 1.04 ± 0.017 |
| TTGTATTAAT | 0.975 ± 0.031 |
| ATATTTACCG | 1.04 ± 0.011 |
| GGGAGTAAAG | 0.989 ± 0.013 |
| TGGTTTTAAT | 0.973 ± 0.028 |
| TTCTGGAAAA | 1.05 ± 0.064 |
| CAAATGATGT | 1.01 ± 0.027 |
| TAGTCAGAAT | 0.967 ± 0.012 |
| TTTTTTTCGG | 1 ± 0.027 |
| TTTTTAACAT | 0.993 ± 0.033 |
| CTAAACAGGG | 1.03 ± 0.011 |
| TTAACGGTGT | 1.004 ± 0.005 |
| ATTGGTCATA | 1 ± 0.028 |
| TTATTAGCAA | 1.93 ± 1.4 |
| TTTTTTCTAA | 0.973 ± 0.015 |
| GGTGGATACA | 1.005 ± 0.0036 |
| TGCGTACTAT | 1.06 ± 0.1 |
| CAGGGTTAGG | 1.01 ± 0.026 |

| Sequence | switch fluorescence ratio |
| --- | --- |
| GGGGTTAATA | 1 ± 0.067 |
| TTCATGAGTG | 0.9696 ± 0.0051 |
| CATAGGGGTA | 1.01 ± 0.04 |
| AGAACTAGGG | 0.974 ± 0.016 |
| TTCATTTCTG | 1.02 ± 0.039 |
| TTTAACTTAT | 1.03 ± 0.02 |
| TACGTTACTC | 1.56 ± 0.018 |
| AGGAATCGGG | 0.993 ± 0.047 |
| GAGCTGGGTG | 1.09 ± 0.043 |
| TATTTATAGC | 1.02 ± 0.013 |
| GCCCGACTCT | 1.01 ± 0.041 |
| AAATGGAGTG | 0.987 ± 0.018 |
| AGGGCAAAAG | 1.03 ± 0.006 |
| TGGGAGGGAA | 0.995 ± 0.013 |
| CGGTGTACGC | 1.061 ± 0.0034 |
| CTGGGGTTGG | 0.968 ± 0.012 |
| GGTTGAGCGT | 1.01 ± 0.047 |
| TTGAGCGGGT | 1.11 ± 0.091 |
| TCTCTTATGA | 0.997 ± 0.011 |
| AGTAGAATCA | 1.01 ± 0.026 |
| AATAATATAG | 0.996 ± 0.031 |
| GAGTAGGGTA | 1.01 ± 0.016 |
| TATATTACCC | 1.05 ± 0.065 |
| TTTGTCTGGA | 0.991 ± 0.032 |
| ACAGTTAATA | 1.06 ± 0.018 |

| Sequence | switch fluorescence ratio |
| --- | --- |
| TGTAAGGAAC | 1.26 ± 0.35 |
| GAACTTGCCT | 1 ± 0.018 |
| CGGTTAGACT | 0.975 ± 0.05 |
| GTTATAAGTT | 1.06 ± 0.027 |
| GGGTCAATAG | 1.42 ± 0.051 |
| GGGGTACTAC | 1.003 ± 0.0053 |
| GATCAAATAT | 1.01 ± 0.0063 |
| CACTGGGGGT | 1.03 ± 0.019 |
| CGCATTCTAA | 1.31 ± 0.019 |
| TTTCATGAAT | 0.987 ± 0.0027 |
| TTTAACCAAT | 1.02 ± 0.064 |
| CGTGCACATT | 0.983 ± 0.012 |
| GATAATTGG | 0.988 ± 0.02 |
| ATAAGCCTGG | 1.01 ± 0.041 |
| GGATTAATCA | 1.01 ± 0.035 |
| AGGCTGGCTA | 1 ± 0.019 |
| CGATTGATGT | 1.02 ± 0.016 |
| ATGGGCCGCT | 0.9835 ± 0.0087 |
| GGGGGGAATT | 1.05 ± 0.1 |
| TTATTGTGCT | 0.983 ± 0.031 |
| CGGAAGGGTA | 0.989 ± 0.036 |
| ACTTAATGGG | 1.034 ± 0.0014 |
| TGGTACGGTT | 0.975 ± 0.015 |
| AGGGCGGCTG | 0.985 ± 0.024 |
| GAGGTGAAAT | 1.01 ± 0.027 |

| Sequence | switch fluorescence ratio |
| --- | --- |
| GCTGGGGTTG | 0.9839 ± 0.003 |
| TGAATGTTTG | 1.01 ± 0.036 |
| ATATACTACA | 1.06 ± 0.022 |
| CGGGCAGGTA | 1.044 ± 0.0039 |
| TATTTGGGGC | 1.01 ± 0.058 |
| TCATGAGGGG | 0.972 ± 0.036 |
| AGAACCATCG | 1.05 ± 0.016 |
| CGCAGGCTTG | 1.04 ± 0.043 |
| AAACGGTGTG | 1.03 ± 0.037 |
| GGAATGGATA | 1 ± 0.035 |
| ACTAGTTTTG | 0.976 ± 0.033 |
| TTTCTCCGTT | 1.44 ± 0.55 |
| TAAAGCAGCT | 0.965 ± 0.04 |
| AGGTGCAGTG | 1.015 ± 0.0042 |
| TGAGGCAAGG | 1.69 ± 0.47 |
| TAGGATGGGC | 1.04 ± 0.04 |
| AAAGGGTTGC | 0.999 ± 0.041 |
| CCATGTTAAG | 0.985 ± 0.02 |
| TAATAGTTTG | 1.028 ± 0.0095 |
| GGTATTGAGT | 0.992 ± 0.03 |
| GGGTTGCAAC | 1.24 ± 0.32 |
| AATCGTGGTG | 0.982 ± 0.047 |
| GTCAGGCCGG | 1.09 ± 0.15 |
| AGCTACCTTC | 1.42 ± 0.041 |
| TTTAGGGGCG | 1.03 ± 0.1 |

| Sequence | switch fluorescence ratio |
| --- | --- |
| CGGTATCTGA | 0.9888 ± 0.006 |
| GCACGTGACC | 1.47 ± 0.048 |
| CAGTCTGTGT | 0.9921 ± 0.0075 |
| AGGGGTTTTG | 0.989 ± 0.022 |
| TATTTGGATC | 0.991 ± 0.035 |
| TTGGGTGAAG | 1.01 ± 0.025 |
| ATGTTCCTTT | 0.999 ± 0.023 |
| ACGTACTACT | 1.3895 ± 0.00013 |
| TTTTGTTGCT | 0.956 ± 0.037 |
| GTATTTTGGG | 0.996 ± 0.014 |
| GCAGTGGGGA | 1 ± 0.031 |
| TTGGAGGTAG | 1 ± 0.037 |
| TTTATGGCCC | 1.01 ± 0.064 |
| TGGCAAATGT | 0.9818 ± 0.0049 |
| TTTAAGTTTT | 1 ± 0.022 |
| GGTGATACGG | 1.012 ± 0.0022 |
| GGGAGAGTGG | 0.9868 ± 0.0015 |
| TGTGAATCAG | 1.018 ± 0.0075 |
| TTTATTGAGT | 0.978 ± 0.048 |
| TCGGCATTTT | 1.027 ± 0.0014 |
| AGGTACGGGA | 1.03 ± 0.074 |
| GAGGGTATTA | 1.02 ± 0.019 |
| TTATGTCAAA | 1.01 ± 0.025 |
| TTTTGCGATC | 1.14 ± 0.021 |
| AATTTTAACA | 1 ± 0.016 |
